# Source: the RNAGym collection of RNA variant scans (doi:10.7554/elife.80360)
# B1: HDV Ribozyme (parent)
# chain: GGCCGGCAUGGUCCCAGCCUCCUCGCUGGCGCCGGCUGGGCAACAUUCCGAGGGGACCGUCCCCUCGGUAAUGGCGAAUGGGACCCA
# Variants of: B1
# Assay: self-cleavage, relative activity (ratio to wild type); higher = more cleavage; co-transcriptional
row,Variant,self-cleavage
1,C24A A70C,0.852
2,C24A A70U,0.612
3,U23G U65A,0.886
4,U23G C63G,0.688
5,C24A C63A,0.882
6,C24A C63G,0.723
7,C24A C63U,0.692
8,U23G G29C,0.196
9,U23C G67U,0.743
10,U23G A42G,0.0665
11,U23G A42U,0.0997
12,U23G G76U,1.05
13,U23G G82C,0.222
14,U23G G35U,0.283
15,U23G G35A,0.324
16,U23G G35C,0.0639
17,U23G C33G,0.161
18,C24A C26G,0.858
19,C24A C26U,1.05
20,U23C U72A,0.776
21,U23C U72G,0.532

row,Variant,self-cleavage
1,U23G U27C,0.511
2,U23G U27A,0.594
3,U23G G80C,0.147
4,U23G G38U,0.0583
5,U23G G38A,0.0923
6,U23G G38C,0.095
7,U23C U27A,0.898
8,U23G C49U,0.867
9,U23G C49A,0.831
10,U23C U37G,0.266
11,C24A C44G,0.256
12,C24A C44U,0.0831
13,U23G A45U,0.312
14,C24A A42U,0.0639
15,C24A A42G,0.166
16,U23G C86A,0.607
17,U23G C86U,0.877
18,U23G C86G,0.525
19,U23G G59C,0.9
20,U23G G59A,0.708
21,U23G U46C,0.462

row,Variant,self-cleavage
1,U23G U46A,0.712
2,U23G A70G,0.59
3,C24A C61G,0.678
4,C24A C61U,0.757
5,C24A A51U,0.747
6,C24A C58G,0.855
7,C24A C58A,0.863
8,C24A C58U,0.742
9,C24A C66G,0.731
10,U23G A77C,0.172
11,U23G A77U,0.237
12,C24A A78G,0.492
13,U23C U69C,0.886
14,U23G U47G,0.731
15,U23G U47C,0.332
16,U23G U47A,0.864
17,U23G C26U,0.997
18,C24A C32G,0.213
19,C24A C32U,0.619
20,U23G C64U,0.61
21,U23G C64A,0.89

row,Variant,self-cleavage
1,U23G A71C,0.256
2,U23G A71G,0.831
3,U23G A71U,0.633
4,C24A C30G,0.089
5,C24A C30U,0.0723
6,U23G C48A,0.807
7,C24A C64U,0.866
8,C24A C64G,0.749
9,U23G A87G,0.645
10,U23G G68A,0.565
11,U23G U72G,0.214
12,U23G U72A,0.341
13,U23G G81C,0.166
14,U23G G81A,0.0426
15,U23G G81U,0.117
16,U23C U47A,1.03
17,U23G G53C,0.759
18,U23G G53A,0.306
19,U23G G53U,0.866
20,U23G C44A,0.0791
